From US20230174642A1, “AFFINITY-MATURATED ANTI-ASIC1a ANTIBODIES” (SHANGHAITECH UNIVERSITY, priority 2019, published 2023)
Where a chain is given by its changes, count along the chain named.

B1: ASC06-03-IgG1 (antibody, V domains shown)
VH: QVQLQQSGGGLVQPGGSLRLSCAASGFTFSSYAMSWVRQAPGKGLEWVSAISGSGGSTYYADSVKGRFTISRDNSKNTLYLQMNSLRAEDTAVYYCAKDSFYGRAKGSWGQGTLVTVSS
VL: QSALTQPASVSGSPGQSITISCTGTSSDVGAYNYVSWYQQQPGKAPKLMIYGVSNRPSGVSNRFSGSKSGNAASLTISGLQAEDEADYYCSSYTSSSTYVFGTGTKLTVLG
notes: Full length IgG1
B2: ASC06-04-IgG1 (antibody, V domains shown)
VH: B1 VH with S108V
VL: B1 VL
notes: Full length IgG1
B3: ASC06-01-IgG1 (antibody, V domains shown)
VH: B1 VH with F101Y, Y102F, R104Y, A105S, S108D
VL: B1 VL
notes: Full length IgG1
B4: ASC06-IgG1 (antibody, V domains shown)
VH: B1 VH with R104Y, A105S, S108D
VL: B1 VL
notes: Tested as full length IgG1; also called WT antibody ASC06-IgG1; parental ASC06-IgG1 antibody
B5: ASC06-02-IgG1 (antibody, V domains shown)
VH: B1 VH with Y102F
VL: B1 VL
notes: Full length IgG1

Target: T1, rat ASIC1a-eYFP (rASIC1a-eYFP) on transiently transfected CHO-K1 cells (rat, UniProt P55926 1-526)
T1 construct: whole, on cells; not shown: eYFP fusion partner
T1 sequence (looked up): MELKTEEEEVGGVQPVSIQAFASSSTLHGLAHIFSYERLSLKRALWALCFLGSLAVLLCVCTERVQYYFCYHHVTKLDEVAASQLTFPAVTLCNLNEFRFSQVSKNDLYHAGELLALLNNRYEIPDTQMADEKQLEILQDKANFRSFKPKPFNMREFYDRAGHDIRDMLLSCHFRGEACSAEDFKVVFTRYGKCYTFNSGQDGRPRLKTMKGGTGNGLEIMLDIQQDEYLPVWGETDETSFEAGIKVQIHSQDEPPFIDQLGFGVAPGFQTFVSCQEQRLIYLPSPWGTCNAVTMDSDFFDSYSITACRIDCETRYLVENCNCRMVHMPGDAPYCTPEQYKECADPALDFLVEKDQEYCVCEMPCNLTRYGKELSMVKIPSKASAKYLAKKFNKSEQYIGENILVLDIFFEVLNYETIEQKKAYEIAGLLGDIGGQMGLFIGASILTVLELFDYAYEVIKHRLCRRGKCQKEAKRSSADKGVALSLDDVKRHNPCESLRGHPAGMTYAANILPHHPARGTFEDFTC
Assay: FACS on transiently transfected CHO-K1 cells
Procedure: (§1) To investigate the species selectivity of ASC06-IgG1 affinity-matured antibodies, plasmids encoding fusion proteins of eYFP with […] homologs of ASIC1a were constructed. These plasmids included those encoding human ASIC1a (hASIC1a-eYFP), mouse ASIC1a (mASIC1a-eYFP), and rat ASIC1a (rASIC1a-eYFP). CHO-K1 cells were transiently transfected with the ASIC1a-eYFP plasmids, and a fluorescence activated cell sorting (FACS)-based binding assay was carried out to determine binding to the homologs or isoforms of ASIC1a expressed on the cell surface. An isotype control was used as a negative control for binding (NC). ASC06-IgG1 was used as a positive control. Summarily, the CHO-K1 cells expressing the ASIC1a-eYFP (green) homologs were stained with the indicated antibody (red) and subjected to FACS.
(§2) To examine the ASIC isotype selectivity of ASC06-IgG1 affinity-matured antibodies, plasmids encoding fusion proteins of eYFP with isoforms of […] were constructed. These plasmids included those encoding human ASIC1b (hASIC1b-eYFP), human ASIC2a (hASIC2a-eYFP), and human ASIC3a (hASIC3a-eYFP). CHO-K1 cells were transiently transfected with these plasmids and used in a FACS-based binding assay disclosed herein. Binding of ASC06-IgG1 to CHO-K1 cells expressing human ASIC1a-eYFP (hASIC1a-eYFP) was used as a positive control (data not shown and FIG. 2), and an isotype control was used as a negative control for binding (NC).

**Q.** Does B1 bind?
**A.** binds

**Q.** Does B2 bind?
**A.** binds

**Q.** Does B3 bind?
**A.** binds

**Q.** Does B4 bind?
**A.** binds

**Q.** Does B5 bind?
**A.** binds

Target: T2, human ASIC2a-eYFP (hASIC2a-eYFP) on transiently transfected CHO-K1 cells (human, UniProt Q16515 1-512)
T2 construct: whole, on cells; not shown: eYFP fusion partner
T2 sequence (looked up): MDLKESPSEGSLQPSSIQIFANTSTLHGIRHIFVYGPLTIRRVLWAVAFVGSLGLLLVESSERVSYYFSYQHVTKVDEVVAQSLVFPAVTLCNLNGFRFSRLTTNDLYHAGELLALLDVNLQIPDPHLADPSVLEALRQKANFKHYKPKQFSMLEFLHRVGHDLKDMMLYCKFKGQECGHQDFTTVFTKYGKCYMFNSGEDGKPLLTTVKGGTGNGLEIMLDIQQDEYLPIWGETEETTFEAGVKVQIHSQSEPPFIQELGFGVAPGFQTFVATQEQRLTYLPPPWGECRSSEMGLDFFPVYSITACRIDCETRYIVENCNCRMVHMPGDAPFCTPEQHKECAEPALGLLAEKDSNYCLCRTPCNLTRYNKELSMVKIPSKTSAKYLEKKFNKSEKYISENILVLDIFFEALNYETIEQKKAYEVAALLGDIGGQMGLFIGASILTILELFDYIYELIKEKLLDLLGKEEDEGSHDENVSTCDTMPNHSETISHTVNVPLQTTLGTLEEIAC
Assay: FACS on transiently transfected CHO-K1 cells
Procedure: as §1, §2

**Q.** Does B1 bind?
**A.** no binding

**Q.** Does B2 bind?
**A.** no binding

**Q.** Does B3 bind?
**A.** no binding

**Q.** Does B4 bind?
**A.** no binding

**Q.** Does B5 bind?
**A.** no binding

Target: T3, recombinant extracellular domain of hASIC1a (hASIC1a-ECD) (human, UniProt P78348 67-427, limits assumed)
T3 construct: extracellular domain; ASIC1a is one splice isoform of it; also called trimeric ectodomain of hASIC1a
T3 sequence (looked up): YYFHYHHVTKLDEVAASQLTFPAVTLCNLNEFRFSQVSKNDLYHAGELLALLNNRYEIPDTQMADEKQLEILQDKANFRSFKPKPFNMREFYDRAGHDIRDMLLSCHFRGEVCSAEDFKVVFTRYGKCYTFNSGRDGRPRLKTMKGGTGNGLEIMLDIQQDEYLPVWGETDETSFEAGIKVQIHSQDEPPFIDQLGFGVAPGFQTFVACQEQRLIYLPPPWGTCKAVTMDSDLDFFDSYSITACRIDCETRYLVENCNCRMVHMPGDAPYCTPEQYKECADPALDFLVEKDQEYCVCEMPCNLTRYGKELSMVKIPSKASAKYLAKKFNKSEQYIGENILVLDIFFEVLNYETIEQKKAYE
Assay: SPR, Biacore T200, hASIC1a-ECD immobilized, IgG1 as analyte
Procedure: Binding affinities of four affinity-matured antibodies in IgG1 format (ASC06-01-IgG1 through ASC06-04-IgG1) to the recombinant extracellular domain of hASIC1a(hASIC1a-ECD) were measured using the Biacore T200™ (GE Healthcare). The ASC06-IgG1 antibody was used as a positive control. All manipulations were followed by the user guide of manufacturer. Briefly, was hASIC1a was immobilized, and serial dilutions of the indicated antibodies were added as analytes. The analysis of the results were processed in BIA Evaluation Software™.

**Q.** Which results are given for B1?
**A.** Kd: 0.12 nM; koff: 8.2e-05 s⁻¹; kon: 680000 M⁻¹ s⁻¹

**Q.** Which Kd does the source give for B2 here?
**A.** 0.26 nM

**Q.** And the koff?
**A.** 0.000163 s⁻¹

**Q.** And the kon?
**A.** 620000 M⁻¹ s⁻¹

**Q.** With B3 as the binder, how does the Kd read?
**A.** 0.1 nM

**Q.** What about the koff of the same binder?
**A.** 0.000997 s⁻¹

**Q.** What about the kon of the same binder?
**A.** 9.7e+06 M⁻¹ s⁻¹

**Q.** B4 was tested. Which Kd did it give?
**A.** 0.28 nM

**Q.** What about the koff of the same binder?
**A.** 0.0013 s⁻¹

**Q.** What about the kon of the same binder?
**A.** 4.7e+06 M⁻¹ s⁻¹

**Q.** What does the source list for B5?
**A.** Kd: 0.0125 nM; koff: 0.000168 s⁻¹; kon: 1.3e+07 M⁻¹ s⁻¹
